Legend:
prothrombin [1] = target: T1, prothrombin (human, UniProt P00734 44-622); test: pull-down with IgA binding lectin-agarose, supernatant on SDS-PAGE
mature human thrombin = mature human thrombin (human, UniProt P00734 314-363; P00734 364-622); test: estimate from the rate of S2238 hydrolysis by thrombin
prothrombin [2] = target: T1, prothrombin; test: ForteBio Octet, immobilized IgG

B1: wild-type anti-exosite 1 IgA antibody (antibody, V domains shown)
VH: QVQLIQSGSAVKKPGASVRVSCKVSGYTLTEAAIHWVRQAPGKGLEWMGGLDPQDGETVYAQQFKGRVTMTEDRSTDTAYMEVNNLRSEDTATYYCTTGDFSEFEPFSMDYFHFWGQGTVVTVAS
VL: EIVLTQSPATLSLSPGERATLSCRASQNVSSFLAWYQHKPGQAPRLLIYDASSRATDIPIRFSGSGSGTDFTLTISGLEPEDFAVYYCQQRRSWPPLTFGGGTKVEIKR
notes: also called anti-thrombin IgA; anti-IIa IgA
binding result (prothrombin [1]): no binding | Kd (mature human thrombin): ~12 nM

B2: synthetic anti-exosite 1 IgG antibody (antibody, V domains shown)
VH: B1 VH
VL: B1 VL
notes: also called synthetic IgG; anti-exosite IgG antibody
binding result (prothrombin [2]): no binding (tested: 500nM)

Source: patent WO2019030706A1 (dated 2019)
